The test system of the series is Saccharomyces cerevisiae. Put plainly: protein stability index of tFT-peptide fusion (C-terminal peptide) (PSI (0-1 scale)); higher = more stable (slower turnover). To be noted: temperature: 30 C. On the procedure:
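MPS profiling in S. cerevisiae of the yeast C-terminome library: the last 12 aa of each annotated ORF are fused to the C-terminus of a sfGFP-mCherry timer, after a GGGS linker. Cells are FACS-sorted into 8 mCherry/sfGFP bins and deep-sequenced. PSI runs from 0 (unstable) to 1 (stable); wild type and das1Δ backgrounds, two technical replicates each.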

[1] abbreviates: genetic background: das1 deletion.

± gives the standard deviation of the averaged measurements.

Regarding SVTSGSANFVFY [UTH1 C-terminal 12 aa], the protein stability index is, setting by setting: under setting [1], 0.7081 ± 0.0034; (genetic background: wild type) 0.7 ± 0.019.
As to SYKWLKRETSPL [FRA1 C-terminal 12 aa], the protein stability index under setting [1] worked out at 0.712 ± 0.024 and the protein stability index (genetic background: wild type) was determined as 0.689 ± 0.022.
Sequence TAIVAVVALLLL [DAN4 C-terminal 12 aa] showed a protein stability index under setting [1] of 0.343 ± 0.0084 and a protein stability index (genetic background: wild type) of 0.353 ± 0.0092.
Consider TAPLIQRKNKKN [RPN8 C-terminal 12 aa], for which the protein stability index by setting is: under setting [1], 0.741 ± 0.037; (genetic background: wild type) 0.355 ± 0.022.
Taken in the same sequence, the figures for TASGEDSHLLKQ [BRL1 C-terminal 12 aa] were 0.669 ± 0.029 and 0.689 ± 0.026.
For the sequence TCISVFLEVHQV [YDL206W C-terminal 12 aa], the protein stability index was determined as 0.479 ± 0.017 under setting [1] and 0.4633 ± 0.0046 (genetic background: wild type).
On to TDIENRNFRYIY [THI73 C-terminal 12 aa], for which the protein stability index was 0.6944 ± 0.0043 under setting [1] and 0.702 ± 0.022 (genetic background: wild type).
Taken in the same sequence, the figures for TDIEPSAKRQKK [RPF2 C-terminal 12 aa] were 0.776 ± 0.048 and 0.695 ± 0.087.
Taken in the same sequence, the figures for TDNGSVLPLNPS [BAS1 C-terminal 12 aa] were 0.696 ± 0.015 and 0.697 ± 0.028.
Consider TDTEAEDDESPE [SEC63 C-terminal 12 aa], for which the protein stability index was 0.692 ± 0.025 under setting [1] and 0.633 ± 0.013 (genetic background: wild type).
Taken in the same sequence, the figures for TDYTRIIKMQSS [SWD1 C-terminal 12 aa] were 0.701 ± 0.013 and 0.251 ± 0.0049.
Taken in the same sequence, the figures for “TFCRLCSHIQYF [YAL059C-A C-terminal 12 aa]” were 0.7214 ± 0.006 and 0.694 ± 0.022.
Taken in the same sequence, the figures for TFKGLYAEANSI [YOR111W C-terminal 12 aa] were 0.739 ± 0.01 and 0.716 ± 0.031.
As to TFKPIYLWALDL [SPP382 C-terminal 12 aa], the protein stability index reads like this: under setting [1], 0.6938 ± 0.0043; (genetic background: wild type) 0.6753 ± 0.0057.
Taken in the same sequence, the figures for TGLLRGSQKTQD [RPL2A C-terminal 12 aa] were 0.7017 ± 0.0061 and 0.672 ± 0.0086.
With TISPYIRVCVST [YPR099C C-terminal 12 aa], the protein stability index under setting [1] turned out to be 0.3891 ± 0.0037 and the protein stability index (genetic background: wild type) was found to be 0.424 ± 0.018.
Sequence TKCEEEIKNLSK [YME2 C-terminal 12 aa] yielded a protein stability index under setting [1] of 0.698 ± 0.022 and a protein stability index (genetic background: wild type) of 0.711 ± 0.036.
Taken in the same sequence, the figures for TKGGNAGTKAYN [RTC3 C-terminal 12 aa] were 0.679 ± 0.011 and 0.666 ± 0.041.
Taken in the same sequence, the figures for TKWWLHYYRKLR [SBE2 C-terminal 12 aa] were 0.7418 ± 0.005 and 0.701 ± 0.023.
Taken in the same sequence, the figures for TLSMYPRRRFYH [GPG1 C-terminal 12 aa] were 0.709 ± 0.011 and 0.608 ± 0.043.
Turning to TPEDADEEEDDE [RPL22B C-terminal 12 aa], the protein stability index reads like this: under setting [1], 0.6921 ± 0.0011; (genetic background: wild type) 0.655 ± 0.014.
Taken in the same sequence, the figures for TPLLLGNKGKPQ [YBL094C C-terminal 12 aa] were 0.687 ± 0.019 and 0.696 ± 0.043.
As for TQEKLDSLLLMQ [LGE1 C-terminal 12 aa], the protein stability index is 0.702 ± 0.011 under setting [1] and 0.6982 ± 0.006 (genetic background: wild type).
As to TREPISYKLDIQ [ERO1 C-terminal 12 aa], the protein stability index reads like this: under setting [1], 0.678 ± 0.044; (genetic background: wild type) 0.67 ± 0.024.
With TRKWANAAKGMP [YLR407W C-terminal 12 aa], the protein stability index runs as follows: under setting [1], 0.6889 ± 0.0067; (genetic background: wild type) 0.727 ± 0.012.
Taken in the same sequence, the figures for TRMNVSHYYIIT [YOL166C C-terminal 12 aa] were 0.6573 ± 0.0038 and 0.641 ± 0.019.
Taken in the same sequence, the figures for TRRVAARKGKLS [UTR5 C-terminal 12 aa] were 0.686 ± 0.0091 and 0.32 ± 0.014.
In the case of TSAFNKLHIVEE [YAK1 C-terminal 12 aa], the protein stability index is, setting by setting: under setting [1], 0.712 ± 0.024; (genetic background: wild type) 0.67 ± 0.045.
Regarding TSDHLFVVFFFW [YDL034W C-terminal 12 aa], the protein stability index runs as follows: under setting [1], 0.327 ± 0.019; (genetic background: wild type) 0.319 ± 0.035.
For the sequence TSHEAVAAKKLI [SHC1 C-terminal 12 aa], the protein stability index is 0.673 ± 0.018 under setting [1] and 0.249 ± 0.011 (genetic background: wild type).
Consider TSILEDVDGDDE [YOL050C C-terminal 12 aa], for which the protein stability index is, setting by setting: under setting [1], 0.706 ± 0.041; (genetic background: wild type) 0.669 ± 0.026.
Taken in the same sequence, the figures for TSPRNICTSLCV [SAL1 C-terminal 12 aa] were 0.66358 ± 0.00023 and 0.655 ± 0.038.
Taken in the same sequence, the figures for TTDEEVKEKKKR [GLE2 C-terminal 12 aa] were 0.6893 ± 0.0049 and 0.692 ± 0.028.
Consider TTNANVNNSSLS [FKH1 C-terminal 12 aa], for which the protein stability index is, setting by setting: under setting [1], 0.715 ± 0.021; (genetic background: wild type) 0.6623 ± 0.0022.
Taken in the same sequence, the figures for TVLKAAKKEGLN [MGR3 C-terminal 12 aa] were 0.672 ± 0.015 and 0.671 ± 0.044.
As for TVNYLHRLLETD [ISN1 C-terminal 12 aa], the protein stability index is, setting by setting: under setting [1], 0.73 ± 0.009; (genetic background: wild type) 0.721 ± 0.039.
Take TVPGDENKITKK [PDR12 C-terminal 12 aa]: the protein stability index reads like this: under setting [1], 0.711 ± 0.017; (genetic background: wild type) 0.654 ± 0.064.
Taken in the same sequence, the figures for TVSDGGSIFECS [RAD28 C-terminal 12 aa] were 0.7127 ± 0.0051 and 0.708 ± 0.06.
Taken in the same sequence, the figures for TYRLLLRLHAQD [FAR7 C-terminal 12 aa] were 0.68 ± 0.035 and 0.641 ± 0.019.
As to TYSYTIDHPVLT [NUP100 C-terminal 12 aa], the protein stability index runs as follows: under setting [1], 0.659 ± 0.021; (genetic background: wild type) 0.659 ± 0.034.
With VAASKASKKSKI [NSA1 C-terminal 12 aa], the protein stability index came to 0.683 ± 0.035 under setting [1] and 0.677 ± 0.085 (genetic background: wild type).
Taken in the same sequence, the figures for VAFFKAVGATIM [YOR146W C-terminal 12 aa] were 0.625 ± 0.011 and 0.627 ± 0.054.
Taken in the same sequence, the figures for VAKAEKLAAEAN [ATP2 C-terminal 12 aa] were 0.684 ± 0.03 and 0.705 ± 0.022.
In turn, VDALQIQYNRRP [SCD5 C-terminal 12 aa] came in with a protein stability index under setting [1] of 0.681 ± 0.013 and a protein stability index (genetic background: wild type) of 0.692 ± 0.033.
Regarding VDESWLPETYKK [IRC22 C-terminal 12 aa], the protein stability index under setting [1] stood at 0.7425 ± 0.0014 and the protein stability index (genetic background: wild type) was determined as 0.711 ± 0.022.
Taken in the same sequence, the figures for VDQLFEKASVLY [RPN6 C-terminal 12 aa] were 0.68 ± 0.017 and 0.721 ± 0.03.
Taken in the same sequence, the figures for VFISTVLLAIVW [YAL065C C-terminal 12 aa] were 0.196 ± 0.015 and 0.192 ± 0.0067.
Consider VFPDVLFTFLFS [YEL010W C-terminal 12 aa], for which the protein stability index reads like this: under setting [1], 0.70228 ± 0.00029; (genetic background: wild type) 0.713 ± 0.027.
The sequence VFPGNYVQLNKN [RVS167 C-terminal 12 aa] yielded a protein stability index under setting [1] of 0.6933 ± 0.0022 and a protein stability index (genetic background: wild type) of 0.679 ± 0.027.
VGFAVMALMDEH [YKE4 C-terminal 12 aa]: the protein stability index is, setting by setting: under setting [1], 0.703 ± 0.052; (genetic background: wild type) 0.7046 ± 0.0017.

Source of the values: the supplement of paper PMC10724198.
